Measurements published in patent publication US20100151566A1 (published 2010).

B3: scFv 2H1 (scFv)
scFv: QQVQLVQSGAEVKKPGESLKISCKGSGYSFTSYWIGWVRQMPGKGLEWMGIIYPGDSDTRYSPSFQGQVTISADKSISTAYLQWSSLKASDTAMYYCARLVVRDTEIWGQGTMVTVSSAPQAKSSGSGSESKVDQAVVTQEPSLTVSPGGTVTLTCASSIGAVTSGNYPNWFQQRPGQPPRALIYSTSNKHSWTPARFSGSLLGGKAALTLSGAQPEDEAEYYCLLSYSGARPVFGGGTKLTVLGAAAGSEQKLISEEDLNSHHHHHH
notes: Made in E. coli from pACR.1-scFv 2H1, purified by IMAC; also called scFv 2H1 fragment; bacterial scFv 2H1

Key:
scFv 2H1 = target: B3; test: phage ELISA on coated scFv 2H1
[1] = target: T1, Isoform 120 of mouse VEGF-A (R&D) (mouse, UniProt Q00731-3 27-146); test: ELISA on coated antigen (Table 7)
T1 construct: also called isoform 120 of murine VEGF
T1 sequence (looked up): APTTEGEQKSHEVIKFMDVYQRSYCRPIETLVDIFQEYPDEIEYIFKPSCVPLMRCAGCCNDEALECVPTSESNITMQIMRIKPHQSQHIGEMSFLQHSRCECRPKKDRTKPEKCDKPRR
Description: The purified Fab fragment was evaluated for its capacity of recognizing human VEGF using an ELISA assay. […] The purified Fab fragment was diluted and incubated for 1 h at 22° C.

[2] = target: T1, Isoform 120 of mouse VEGF-A (R&D); test: ELISA on coated antigen (Table 6)
[3] = target: T1, Isoform 120 of mouse VEGF-A (R&D); test: phage ELISA; + means OD at least 5 times the negative control
Description: The latter was immobilized in a 96-well Maxisorp (Nunc) immunoplate at a concentration of 1 μg/ml in PBS, during 16 h at 4° C. The plate was blocked at 22° C. with PBS-milk 4% during 1 h.
After blocking the plates, the phages purified as described above and diluted in PBS-skimmed milk 4% were added and incubated for 1 h at 22° C. After several washes, the bound phages were detected with anti-M13 peroxidase conjugated antibodies. […] As negative control, a sample of the mixture of phages of the unselected library was used, precipitated as described above.

B1: peptide CCRTLMLLQYHR displayed in filamentous phage (peptide)
peptide: CCRTLMLLQYHR
notes: Tested as phage; also called peptide phage clones
binding result (scFv 2H1): binds

B2: Fab 2H1-32 (Fab, V domains shown)
VH: QVQLVQSGAEVKKPGESLKISCKGSGYSFTSYWIGWVRQMPGKGLEWMGIIYPGDSDTRYSPSFQGQVTISADKSISTAYLQWSSLKASDTAMYYCARLVVRDTEIWGQGTMVTVSS
VL: QAVVTQEPSLTVSPGGTVTLTCASSIGAVTSGNYPNWFQQRPGQPPRALIYSTSNKHSWTPARFSGSLLGGKAALTLSGAQPEDEAEYYCLLSYSGARPVFGGGTKLTVLG
notes: Made in E. coli, purified by IMAC, purity close to 85%; also called Fab fragment 2H1-32; Fab produced in E. coli
binding result [1]: no binding (tested: 20 µg/mL)

B3
binding result [2]: no binding (tested: 20 µg/mL)

B4: phage clone 2H1-F (scFv)
scFv: QQVQLVQSGAEVKKPGESLKISCKGSGYSFTSYWIGWVRQMPGKGLEWMGIIYPGDSDTRYSPSFQGQVTISADKSISTAYLQWSSLKASDTAMYYCARLVVRDTEIWGQGTMVTVSSAPQAKSSGSGSESKVDQAVVTQEPSLTVSPGGTVTLTCASSIGAVTSGNYPNWFQQRPGQPPRALIYSTSNKHSWTPARFSGSLLGGKAALTLSGAQPEDEAEYYCLLSYSGARPVFGGGTKLTVLG
modifications: Displayed on filamentous phage, fused to a coat protein that the letters do not carry.
notes: Tested as phage; also called scFv 2H1-F; original phage scFv (2H1-F); not shown: phage coat protein of the phagemid display format, with any tag or junction residues before it
binding result [3]: no binding
